The values that follow come from the nanobody polyreactivity screen of Harvey et al. (2022).

This data set is described as follows: yeast display, Sf9 membrane polyspecificity reagent, FACS + sequencing; frameworks hold sequencing errors. The method, boiled down:
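Nanobodies came from a synthetic yeast display library in Saccharomyces cerevisiae BJ5465, induced with galactose for 36–48 hours and stained for 1 hour at 4 °C with 10% biotinylated, detergent-solubilized Sf9 membrane reagent. Cells were enriched on streptavidin microbeads and then FACS-sorted, with low and high (top ~1%) gates set on anti-HA fluorescence for expression and streptavidin fluorescence for reagent binding. Each polyreactivity label reflects the gate a clone came from. Genes were amplified by colony PCR, sequenced by MiSeq 2 × 250 and filtered by CDR length.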
Take “QVQLVESGGGLVQAGGSLRLSCAASGFTFYGYAMGWYRQAPGKERELVADISYRGGSTYYADSVKGRFTISRDNAKNTVYLQMNRLKPEDTAVYYCAARATPTYYAGQREDYNYWGQGTQVTVSS”: the “polyreactivity (PSR sort gate)” value is “high polyreactivity”.

As to “QVQLVESGGGLVQAGGSLRLSCAASGFTFYHNAMGWYRPAPGKERELVAAITWDSGSTYYADSVKGRFTISRDNAKNTAYLQMNSLKPEDPAVYYCAADIASGYYWYDYWGQGTQVTVSS”, the “polyreactivity (PSR sort gate)” value is recorded as “low polyreactivity”.

Turning to “QVQLVESGGGLVQAGGSLRLSCAASGFTFYHNTMGWYRQAPGKEREFVATINFIGGSTYYADSVKGRFTISRDNAKNTVYLQMNSLKPEDTAVYYCNARSRYLYFLRFDYWGQGTQVTVSS”, the “polyreactivity (PSR sort gate)” value is on record as “high polyreactivity”.

For “QVQLVESGGGLVQAGGSLRLSCAASGFTFYHYAMGWSRQAPGKESELVATISKRGGSTYYADSVKGRFTISRDNAKNTVYLQMNSLKPQDTAVFYCAAKIYWSSLKMDYWGQGTQVTVSS”, the “polyreactivity (PSR sort gate)” value is reported as “high polyreactivity”.

For “QVQLVESGGGLVQAGGSLRLSCAASGFTFYIYAMGWYRQAPGKERELVAAISSGGGRTYYADSVKVRFTISRDNAKNTVYLQMTSLKPEDTAVYYCAARGRAFSYKNYGSDYWGQVTQVTVSS”, the “polyreactivity (PSR sort gate)” value is “high polyreactivity”.

Regarding “QVQLVESGGGLVQAGGSLRLSCAASGFTFYKKTMGWYRQAPGKERELVAAISSSGSSTYYADAVKGRVTISRDNAKNTVYLQMNSLKPEDSAVEYCAAGRFAYHDDYWGQGTQVTVSS”, the “polyreactivity (PSR sort gate)” value is recorded as “high polyreactivity”.

For “QVQLVESGGGLVQAGGSLRLSCAASGFTFYKNAMGWYRQAPGKERELVARITGRGGSTYYADSVKGRFTISRDNAKNTVYLQMNSLKPEDTAVYYCAVDGLVWRNRGFDYWGQGTQVTVSS”, the “polyreactivity (PSR sort gate)” value was “high polyreactivity”.

For “QVQLVESGGGLVQAGGSLRLSCAASGFTFYKYAMGCYRQPPGKERELVAAITGRGGSTYYADSVKGRFTISRDNAKNTVYLQMNILKPEDTAVYYCAARTPSYEMDYWGQGTQVTVSS”, the “polyreactivity (PSR sort gate)” value is “high polyreactivity”.

As for “QVQLVESGGGLVQAGGSLRLSCAASGFTFYKYAMGWYRQAPGKERELVAAISYRGGRTYYADSVKGRFTISRDNAKNTVYLQMNSLKPEDTAVYYCAARGYVWNIGRYYWGQGTEVTVSS”, the “polyreactivity (PSR sort gate)” value is listed as “high polyreactivity”.

As to “QVQLVESGGGLVQAGGSLRLSCAASGFTFYKYTMGWYRQAPGKERELVAAIRSSGGRTYYADSVKGRFTISRDNAKNTVYLQMNSLKPEDTAVYYCNAVVDRLIFWQFDYWGQGTQVTVSS”, the “polyreactivity (PSR sort gate)” value is on record as “high polyreactivity”.

Regarding “QVQLVESGGGLVQAGGSLRLSCAASGFTFYLNAMGWYRQAPGKERELVAAITGSGDDTYYADSVKGRFTISRDNAKNTVYLQMNSLKPEDTAVYYCAADVSYWYDYWGQGTQVTVSS”, the “polyreactivity (PSR sort gate)” value is listed as “high polyreactivity”.

Take “QVQLVESGGGLVQAGGSLRLSCAASGFTFYNNAMGWYRPAPGKERELVAVITSNGGRTYYADSVKGRFTISRDNAKNTVYLQMNSVKPEDTAVYYCAKDYKALYLYHYRISGGDVDYWGQGTQVTVSS”: the “polyreactivity (PSR sort gate)” value is “low polyreactivity”.

In the case of “QVQLVESGGGLVQAGGSLRLSCAASGFTFYNYAMGWYRQAPGKERELVAAISWSGGSTHYADSVKGRFTISRDNAKNTVYLQMNSLKPEDTAVYYCAKFGVLGYYTYYYWGQGTQVTVSS”, the “polyreactivity (PSR sort gate)” value is reported as “low polyreactivity”.

With “QVQLVESGGGLVQAGGSLRLSCAASGFTFYNYAMGWYRQAPGKERELVAAITSSGTSTYYADSVKGRFTISRDNAKNTVYLQMNSLKPEDTAVYYCNAVSSYSYSYDYWGQGTQVTVSS”, the “polyreactivity (PSR sort gate)” value is “low polyreactivity”.

For the sequence “QVQLVESGGGLVQAGGSLRLSCAASGFTFYQYAMGWYRQAPGKERELVAAISSGGSTYYADSVKGRFTISRDNAKNTVYLQMNSLKPEDTAVYYCAARFYRPGVKQYGYWGQGTQVTVSS”, the “polyreactivity (PSR sort gate)” value is “high polyreactivity”.

As for “QVQLVESGGGLVQAGGSLRLSCAASGFTFYQYAMGWYRQAPGKERELVAAITWNGGSTYYADSVKGRFTISRDNAKNTVYLQMNSLKPEDTAVYYCAAESPSKFDYDYWGQGTQVTVSS”, the “polyreactivity (PSR sort gate)” value is “high polyreactivity”.

Turning to “QVQLVESGGGLVQAGGSLRLSCAASGFTFYRNAMGWYRQAPGKERELVAAISSRGGSTYYADSVKGRFTISRDNAKNTVYLQLNSMKPEDNAVYYCAAYGNYNEYDYGGQGTQVTVSS”, the “polyreactivity (PSR sort gate)” value is “high polyreactivity”.

With “QVQLVESGGGLVQAGGSLRLSCAASGFTFYRNAMGWYRQAPGKERELVAAISSRGGSTYYADSVKGRFTISRDNAKNTVYLQMNSLKPEDTAVYYCAAYGNYNEYDYWGQGTQVTVSS”, the “polyreactivity (PSR sort gate)” value was “high polyreactivity”.

With “QVQLVESGGGLVQAGGSLRLSCAASGFTFYRNAMGWYRQAPGKERELVARISRRGGITSYADSVKGRFTISRDNAKNTVYLQMNSLKTEDTAVYYCKAEKRGQSYRFDYWGQGTQVTVSS”, the “polyreactivity (PSR sort gate)” value is “high polyreactivity”.

For “QVQLVESGGGLVQAGGSLRLSCAASGFTFYRNTMGWYRQAPGKERELVAAISTRDGSTYYADSVKGRFTISRDNAKYTVYLPMNSLKPEDTAVYYCAVLTYRGRFEYWGQGTQVTVSS”, the “polyreactivity (PSR sort gate)” value is “high polyreactivity”.

As to “QVQLVESGGGLVQAGGSLRLSCAASGFTFYRNTMGWYRQAPGKERELVAAITQRGGSTYYADSVKGRFTISRDNAKNTVYLQMNSLKPEDTAVYYCNRDVKVLYASSHSPYGYDHWGQGTQVTVSS”, the “polyreactivity (PSR sort gate)” value is given as “low polyreactivity”.

As to “QVQLVESGGGLVQAGGSLRLSCAASGFTFYRYAIGWYRQAPGKETQFFASISRSGGSTYYADSVKGRFTISRDNAKNTVYLQMNSLKPEDTEVYYCAKSYTSSPFRIRDYWGQGTQVTVSS”, the “polyreactivity (PSR sort gate)” value is recorded as “high polyreactivity”.

As to “QVQLVESGGGLVQAGGSLRLSCAASGFTFYRYAMGSYRQAPGKERELVAAITFRGDSTYYADSVKGRFTISRDNAKNTVYLQMNSLKPEDTAVYYCAADRPSGWYSYLSLYIVRRGYWGQGTQVTVSS”, the “polyreactivity (PSR sort gate)” value is “low polyreactivity”.

For the sequence “QVQLVESGGGLVQAGGSLRLSCAASGFTFYRYAMGWYRPAPGKERELVAAITSGGSTYYADSVKGRCTISRDNAKNTVFLQMISLKPEDTAVYSCAAQKARVSPGAWTRYVYWGQGTQVTVSS”, the “polyreactivity (PSR sort gate)” value was “high polyreactivity”.

“QVQLVESGGGLVQAGGSLRLSCAASGFTFYRYAMGWYRPATGKERELVATISASGGSTYYADSVKGRFTISRDNAKNTVYLQMNSLKPEDTAVYYCAVRYKSWYGFNYWGQGTQVTVSS”: the “polyreactivity (PSR sort gate)” value is listed as “high polyreactivity”.

As to “QVQLVESGGGLVQAGGSLRLSCAASGFTFYRYAMGWYRQAPGKERELVAAISGSGCSKYYADSVKGRFTISRDNAKNTVYLHRNSLKPEDTAVYYCNTVWFYGAKYDYWGQGTQVTVSS”, the “polyreactivity (PSR sort gate)” value is on record as “high polyreactivity”.

As for “QVQLVESGGGLVQAGGSLRLSCAASGFTFYRYAMGWYRQAPGKERELVAAISQRGGRTYYADSVKGRFTISRDNAKTTVYLQMNSLKPEDTAVYYCNARYSGYGLYDYWGQGTQVTVSS”, the “polyreactivity (PSR sort gate)” value is reported as “high polyreactivity”.

For “QVQLVESGGGLVQAGGSLRLSCAASGFTFYRYAMGWYRQAPGKERELVAAISTSGVSTYYADSVKGRFTISRDNAKNTVYLQMNSLKPEDTAVYYCAKAGWRGSYIYYRFRVGYDSWGQGTQVTVSS”, the “polyreactivity (PSR sort gate)” value is listed as “high polyreactivity”.

As for “QVQLVESGGGLVQAGGSLRLSCAASGFTFYRYTMGWNRQAPGKERELVASITRRGGSTYYADSVKGRFTISRDNAKNTVYFQMNSLKPEDTAVYYCNAATPVWQSGTYEYWGQGTQVTVSS”, the “polyreactivity (PSR sort gate)” value is recorded as “high polyreactivity”.

Consider “QVQLVESGGGLVQAGGSLRLSCAASGFTFYRYTMGWYRQPPGKERELVAAISARGVSTYYADSVKGRFTISRDNAKNTVYLQMNSLKPEDTAVYYCYVSRYDSWGQGTQVTVSS”, for which the “polyreactivity (PSR sort gate)” value was “high polyreactivity”.

Take “QVQLVESGGGLVQAGGSLRLSCAASGFTFYSNAMGWYRQAPGKERELVAAITWRGGSTNYADSVKGRFTISRDNAKNTVYLHMNSLKPEETAVYYCAAVTYWFWPGMDYWGQGTEVTVSS”: the “polyreactivity (PSR sort gate)” value is reported as “low polyreactivity”.

As for “QVQLVESGGGLVQAGGSLRLSCAASGFTFYSNAMGWYRQAPGKERELVAVINSDDDSTYYADSVKGRFTISRDNAKNTVYLQMNSLKPEDTAVYYCNKVWRVGKYPYSDRYYFGGGYWGQGTQVTVSS”, the “polyreactivity (PSR sort gate)” value is listed as “high polyreactivity”.

For “QVQLVESGGGLVQAGGSLRLSCAASGFTFYSYAMGWYRPAPGKERELVAAISSGGSTKYADSVKGRFTISRDNAKNTVYLQMNSVKPEDTEVYYCAARYYRDYRWYTYAYDYWGQGTQVTVSS”, the “polyreactivity (PSR sort gate)” value is on record as “high polyreactivity”.

Turning to “QVQLVESGGGLVQAGGSLRLSCAASGFTFYSYAMGWYRQAPGKERELVAAISGGGGSTYYADSVKGRFTISRDNAKNTVYLQMNSLKPEDTAVYYCAKRPAYRGYGLGYYWGQGTQVTVSS”, the “polyreactivity (PSR sort gate)” value is reported as “high polyreactivity”.

On to “QVQLVESGGGLVQAGGSLRLSCAASGFTFYSYAMGWYRQAPGKERELVAAISRSGGSTRYADSVKGRFTISRDNAKNTVYLQMNSLKPEDTAVYYCAARSWYPYRYSSLYYWGQGTQVTVSS”, for which the “polyreactivity (PSR sort gate)” value was “high polyreactivity”.

In the case of “QVQLVESGGGLVQAGGSLRLSCAASGFTFYSYAMGWYRQAPGKERELVAAISWSGTRTYYADSVKGRFTISRDNAKYTVYLQMNSLKPEDTAVYYCAARGYRYGYGYWGQGTQVTVSS”, the “polyreactivity (PSR sort gate)” value is listed as “high polyreactivity”.

Consider “QVQLVESGGGLVQAGGSLRLSCAASGFTFYSYAMGWYRQAPGKEWELVAAISRRGGSTYYADSVKGRFTISRDNAKNTVYLQMNCLKPEDTAVYYCAAEDSNSRYLYGYDYWGQGTQVTVSS”, for which the “polyreactivity (PSR sort gate)” value is recorded as “high polyreactivity”.

Consider “QVQLVESGGGLVQAGGSLRLSCAASGFTFYSYPLGWYRQAPGKERELVAAITRGGRTYYADSVKGRFTISRDNAKTTVYLQMNSLKPDDSAVSYCNATAGHGYYYWGQGTQVTVSS”, for which the “polyreactivity (PSR sort gate)” value was “high polyreactivity”.

As for “QVQLVESGGGLVQAGGSLRLSCAASGFTFYTNAMGWYRQAPGKERELVAGINSGSSTYYADSVKGRFTISRDNAKNNVYLQMNSLKPEDTAVYYCAARRSRYIHRGFGYWGQGTQVTVSS”, the “polyreactivity (PSR sort gate)” value was “high polyreactivity”.

With “QVQLVESGGGLVQAGGSLRLSCAASGFTFYTNTMGWYRQAPGKERELVAAISSGGSTYYADSVKGRFTISRDNAKNTVYLQMNRLKPEDTAVYYCNAYDYHDVADDYWGQGTQVTVSS”, the “polyreactivity (PSR sort gate)” value was “low polyreactivity”.

With “QVQLVESGGGLVQAGGSLRLSCAASGFTFYTNVMAWYRQAPGKERELVAAINSGGSTNYADSVKGRFTISRDNAKNTVFLQMNSLKPEDTAVYYCNKRGTEIGYDYWGQGTQVTVLS”, the “polyreactivity (PSR sort gate)” value was “low polyreactivity”.
